Experimental data as given in paper PMC6956814, “Deubiquitinase USP28 inhibits ubiquitin ligase KLHL2-mediated uridine-cytidine kinase 1 degradation and confers sensitivity to 5'-azacytidine-resistant human leukemia cells” (Theranostics, 2020).

Target: T1, His-tagged KLHL2 protein (human, UniProt O95198 1-593)
T1 construct: Kelch Like Family Member 2 (KLHL2), human; source: recombinant
T1 sequence (looked up): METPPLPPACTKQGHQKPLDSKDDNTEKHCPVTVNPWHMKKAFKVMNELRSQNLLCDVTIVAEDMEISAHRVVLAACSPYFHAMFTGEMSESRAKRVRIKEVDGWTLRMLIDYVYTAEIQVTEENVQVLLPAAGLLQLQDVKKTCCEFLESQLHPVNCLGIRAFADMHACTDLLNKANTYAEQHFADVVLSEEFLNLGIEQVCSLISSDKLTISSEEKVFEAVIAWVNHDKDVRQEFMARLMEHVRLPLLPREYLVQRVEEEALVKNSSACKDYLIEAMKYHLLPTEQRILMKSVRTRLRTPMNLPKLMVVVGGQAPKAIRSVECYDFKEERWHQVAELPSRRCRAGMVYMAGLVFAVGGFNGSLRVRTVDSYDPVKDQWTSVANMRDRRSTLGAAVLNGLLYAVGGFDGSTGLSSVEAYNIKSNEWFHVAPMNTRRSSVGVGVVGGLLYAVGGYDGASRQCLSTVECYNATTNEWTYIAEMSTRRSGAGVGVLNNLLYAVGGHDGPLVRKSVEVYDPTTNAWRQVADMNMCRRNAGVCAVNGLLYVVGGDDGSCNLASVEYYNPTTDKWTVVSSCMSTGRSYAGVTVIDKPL
Test: pull-down; recombinant GST-UCK1 protein incubated with His-tagged KLHL2 protein; GST pull-down
Conditions: both partners purified

- binding result: binds
B1: Recombinant GST-UCK1 protein (enzyme, human, UniProt Q9HA47 1-277, looked up)
chain: MASAGGEDCESPAPEADRPHQRPFLIGVSGGTASGKSTVCEKIMELLGQNEVEQRQRKVVILSQDRFYKVLTAEQKAKALKGQYNFDHPDAFDNDLMHRTLKNIVEGKTVEVPTYDFVTHSRLPETTVVYPADVVLFEGILVFYSQEIRDMFHLRLFVDTDSDVRLSRRVLRDVRRGRDLEQILTQYTTFVKPAFEEFCLPTKKYADVIIPRGVDNMVAINLIVQHIQDILNGDICKWHRGGSNGRSYKRTFSEPGDHPGMLTSGKRSHLESSSRPH
notes: uridine-cytidine kinase 1 (UCK1), human; source: recombinant
